Measured values as given in patent US11306156.
Several values for one entry are separate records, joined by “and”; a condition that tells them apart may be missing. Equal entries are not always repeated.

Experiments:
[1] = biological target: D3H44 light chain F116A_L135V (Kabat), N-terminal HA or FLAG tag; test: LCCA co-expression, competing light chain m35, L1:L2 DNA 1:9 normalized to 1:1, SPR tag read-out
[2] = biological target: D3H44 light chain F116A_L135V (Kabat), N-terminal HA or FLAG tag; test: LCCA co-expression, competing light chain m33, L1:L2 DNA 1:9 normalized to 1:1, SPR tag read-out
[3] = biological target: D3H44 light chain S131T_L135F_S176F_T178F (Kabat), N-terminal HA or FLAG tag; test: LCCA co-expression, competing light chain m34, L1:L2 DNA 1:3 normalized to 1:1, SPR tag read-out
[4] = biological target: D3H44 light chain L135W_S176L (Kabat), N-terminal HA or FLAG tag; test: as above
[5] = biological target: D3H44 light chain S131T_L135F_S176F_T178F (Kabat), N-terminal HA or FLAG tag; test: LCCA co-expression, competing light chain m34, L1:L2 DNA 1:9 normalized to 1:1, SPR tag read-out
[6] = biological target: D3H44 light chain L135W_S176L (Kabat), N-terminal HA or FLAG tag; test: as above
[7] = biological target: D3H44 light chain F116A_L135V (Kabat), N-terminal HA or FLAG tag; test: LCCA co-expression, competing light chain m33, L1:L2 DNA 1:3 normalized to 1:1, SPR tag read-out
[8] = biological target: D3H44 light chain F116A_L135V (Kabat), N-terminal HA or FLAG tag; test: LCCA co-expression, competing light chain m35, L1:L2 DNA 1:3 normalized to 1:1, SPR tag read-out
[9] = biological target: D3H44 light chain S131E (Kabat) with N-terminal HA or FLAG tag; test: LCCA, SPR read-out of light-chain tags; light-chain DNA 1:3 normalized to 1:1; competing light chain m20
[10] = biological target: D3H44 light chain Q124E_S131T_T178F_T180E (Kabat) with N-terminal HA or FLAG tag; test: as above
[11] = biological target: D3H44 light chain Q124R_Q160K_T178R (Kabat) with N-terminal HA or FLAG tag; test: LCCA, SPR read-out of light-chain tags; light-chain DNA 1:3 normalized to 1:1; competing light chain m30
[12] = biological target: D3H44 light chain Q124R_Q160K_T178R (Kabat) with N-terminal HA or FLAG tag; test: LCCA, SPR read-out of light-chain tags; light-chain DNA 1:3 normalized to 1:1; competing light chain m22
[13] = biological target: D3H44 light chain Q124E_Q160E_T178E (Kabat) with N-terminal HA or FLAG tag; test: LCCA, SPR read-out of light-chain tags; light-chain DNA 1:3 normalized to 1:1; competing light chain m20
[14] = biological target: D3H44 light chain Q124E_Q160E_T180E (Kabat) with N-terminal HA or FLAG tag; test: as above
[15] = biological target: D3H44 light chain Q124E_T178E (Kabat) with N-terminal HA or FLAG tag; test: as above
[16] = biological target: D3H44 light chain Q124R_Q160K_T178R (Kabat) with N-terminal HA or FLAG tag; test: LCCA, SPR read-out of light-chain tags; light-chain DNA 1:3 normalized to 1:1; competing light chain m25
[17] = biological target: D3H44 light chain Q124R_Q160K_T178R (Kabat) with N-terminal HA or FLAG tag; test: LCCA, SPR read-out of light-chain tags; light-chain DNA 1:3 normalized to 1:1; competing light chain m27
[18] = biological target: D3H44 light chain Q124R (Kabat) with N-terminal HA or FLAG tag; test: LCCA, SPR read-out of light-chain tags; light-chain DNA 1:3 normalized to 1:1; competing light chain m24
[19] = biological target: D3H44 light chain Q124E_V133E_Q160F (Kabat) with N-terminal HA or FLAG tag; test: LCCA, SPR read-out of light-chain tags; light-chain DNA 1:3 normalized to 1:1; competing light chain m23
[20] = biological target: D3H44 light chain Q124R_Q160K_T178R (Kabat) with N-terminal HA or FLAG tag; test: LCCA, SPR read-out of light-chain tags; light-chain DNA 1:3 normalized to 1:1; competing light chain m17
[21] = biological target: D3H44 Fab heavy chain L143E_K145T; test: LCCA, L1:L2 DNA 1:3 normalised to 1:1, SPR of light chain tags; competitor m32
[22] = biological target: D3H44 Fab heavy chain L143E_K145T_S188L; test: LCCA, L1:L2 DNA 1:3 normalised to 1:1, SPR of light chain tags; competitor m33
[23] = biological target: D3H44 Fab heavy chain L143A_Q179K; test: as above
[24] = biological target: D3H44 light chain T178R (Kabat) with N-terminal HA or FLAG tag; test: LCCA, SPR read-out of light-chain tags; light-chain DNA 1:3 normalized to 1:1; competing light chain m19
[25] = biological target: D3H44 light chain Q124E_Q160E_T180E (Kabat) with N-terminal HA or FLAG tag; test: LCCA, SPR read-out of light-chain tags; light-chain DNA 1:3 normalized to 1:1; competing light chain m26
[26] = biological target: D3H44 light chain Q124E_S176L_T180E (Kabat) with N-terminal HA or FLAG tag; test: LCCA, SPR read-out of light-chain tags; light-chain DNA 1:3 normalized to 1:1; competing light chain m20
[27] = biological target: D3H44 light chain Q124E_S131T_T178Y_T180E (Kabat) with N-terminal HA or FLAG tag; test: as above
[28] = biological target: D3H44 light chain Q124E_Q160E_T180E (Kabat) with N-terminal HA or FLAG tag; test: LCCA, SPR read-out of light-chain tags; light-chain DNA 1:3 normalized to 1:1; competing light chain m16
[29] = biological target: D3H44 light chain Q124R_T178R (Kabat) with N-terminal HA or FLAG tag; test: LCCA, SPR read-out of light-chain tags; light-chain DNA 1:3 normalized to 1:1; competing light chain m22
[30] = biological target: D3H44 light chain Q124E_S131T_T178F_T180E (Kabat) with N-terminal HA or FLAG tag; test: LCCA, SPR read-out of light-chain tags; light-chain DNA 1:3 normalized to 1:1; competing light chain m21
[31] = biological target: D3H44 light chain Q124E_Q160E_T180E (Kabat) with N-terminal HA or FLAG tag; test: as above
[32] = biological target: D3H44 light chain Q124R_Q160K_T178R (Kabat) with N-terminal HA or FLAG tag; test: LCCA, SPR read-out of light-chain tags; light-chain DNA 1:3 normalized to 1:1; competing light chain m29
[33] = biological target: D3H44 light chain Q124E_T180E (Kabat) with N-terminal HA or FLAG tag; test: LCCA, SPR read-out of light-chain tags; light-chain DNA 1:3 normalized to 1:1; competing light chain m18
[34] = biological target: D3H44 light chain Q124E_Q160E_T180E (Kabat) with N-terminal HA or FLAG tag; test: as above
[35] = biological target: D3H44 light chain Q124R_Q160K_T178R (Kabat) with N-terminal HA or FLAG tag; test: LCCA, SPR read-out of light-chain tags; light-chain DNA 1:3 normalized to 1:1; competing light chain m28
[36] = biological target: D3H44 light chain Q124E_Q160E_T180E (Kabat) with N-terminal HA or FLAG tag; test: LCCA, SPR read-out of light-chain tags; light-chain DNA 1:9 normalized to 1:1; competing light chain m21
[37] = biological target: D3H44 light chain T178R (Kabat) with N-terminal HA or FLAG tag; test: LCCA, SPR read-out of light-chain tags; light-chain DNA 1:3 normalized to 1:1; competing light chain m17
[38] = biological target: D3H44 light chain Q124R_T178R (Kabat) with N-terminal HA or FLAG tag; test: as above
[39] = biological target: D3H44 light chain Q124R_T178K (Kabat) with N-terminal HA or FLAG tag; test: as above
[40] = biological target: D3H44 light chain Q124K_T178R (Kabat) with N-terminal HA or FLAG tag; test: as above
[41] = biological target: D3H44 light chain Q124R_T178R (Kabat) with N-terminal HA or FLAG tag; test: LCCA, SPR read-out of light-chain tags; light-chain DNA 1:9 normalized to 1:1; competing light chain m17

With “D3H44 Fab heavy chain A139W_S188L (Kabat), C-terminal ABD2-His6 tag” the H2L2:H2L1 normalized median ratio [1] was 75 of 100, the H2L2:H2L1 normalized median ratio [2] was 55 of 100 and the H2L2:H2L1 normalized median ratio [3] was 41 of 100. The H2L2:H2L1 normalized median ratio [4] was 34 of 100, the H2L2:H2L1 normalized median ratio [5] was 45 of 100 and the H2L2:H2L1 normalized median ratio [6] was 25 of 100. For the same substance, the H2L2:H2L1 normalized median ratio [7] was 59 of 100 and the H2L2:H2L1 normalized median ratio [8] was 66 of 100.
“D3H44 Fab heavy chain Q179R (Kabat) with C-terminal ABD2-His6 tag” was tested, and the H2L2:H2L1 normalized median ratio [9] was 97%, the H2L2:H2L1 normalized median ratio [10] was 96% and the H2L2:H2L1 normalized median ratio [11] was 3%. For the same substance, the H2L2:H2L1 normalized median ratio [12] was 4%.
With “D3H44 Fab heavy chain A139G_V190A (Kabat), C-terminal ABD2-His6 tag” the H1L1:H1L2 normalized median ratio [1] was 28 of 100, the H1L1:H1L2 normalized median ratio [4] was 32 of 100 and the H1L1:H1L2 normalized median scalar value ln(r1/f1) [4] was -0.77. The H1L1:H1L2 normalized median ratio [6] was 72 of 100, the H1L1:H1L2 normalized median scalar value ln(r1/f1) [6] was 0.94 and the H1L1:H1L2 normalized median ratio [8] was 68 of 100.
“D3H44 Fab heavy chain L143E_K145T (Kabat) with C-terminal ABD2-His6 tag” showed an H1L1:H1L2 normalized median ratio [13] of 41%, an H1L1:H1L2 normalized median ratio [9] of 53% and an H1L1:H1L2 normalized median ratio [14] of 28%. The H1L1:H1L2 normalized median ratio [15] was 41%, the H1L1:H1L2 normalized median ratio [16] was 59% and the H1L1:H1L2 normalized median scalar value ln(r1/f1) [16] was 0.37. For the same substance, the H1L1:H1L2 normalized median ratio [17] was 59%, the H1L1:H1L2 normalized median scalar value ln(r1/f1) [17] was 0.36 and the H1L1:H1L2 normalized median ratio [11] was 47%. The H1L1:H1L2 normalized median scalar value ln(r1/f1) [11] was -0.14, the H1L1:H1L2 normalized median ratio [18] was 85% and the H1L1:H1L2 normalized median scalar value ln(r1/f1) [18] was 1.75. The H1L1:H1L2 normalized median ratio [19] was 15%, the H1L1:H1L2 normalized median ratio [20] was 72% and the H1L1:H1L2 normalized median scalar value ln(r1/f1) [20] was 0.95 and 0.96.
For D3H44 light chain Q124R_T178R, the H1L1:H1L2 normalized median scalar value ln(r1/f1) [21] was -0.16.
With D3H44 light chain Q124E_V133Y_T180E the H2L2:H2L1 normalized median ratio [22] was 44%, the H1L1:H1L2 normalized median ratio [23] was 96% and the H1L1:H1L2 normalized median scalar value ln(r1/f1) [23] was 3.13.
In the case of “D3H44 Fab heavy chain S186R (Kabat) with C-terminal ABD2-His6 tag”, the H2L2:H2L1 normalized median ratio [24] is reported as 4%, the H2L2:H2L1 normalized median ratio [25] is reported as 83% and the H2L2:H2L1 normalized median ratio [13] is reported as 95%. The H2L2:H2L1 normalized median ratio [26] was 95%, the H2L2:H2L1 normalized median ratio [10] was 90% and the H2L2:H2L1 normalized median ratio [14] was 80%. For the same substance, the H2L2:H2L1 normalized median ratio [15] was 96%, the H2L2:H2L1 normalized median ratio [27] was 88% and the H2L2:H2L1 normalized median ratio [16] was 5%. It also gave an H2L2:H2L1 normalized median ratio [28] of 82%, an H2L2:H2L1 normalized median ratio [17] of 4% and an H2L2:H2L1 normalized median ratio [12] of 10%. It also gave an H2L2:H2L1 normalized median ratio [29] of 10%, an H2L2:H2L1 normalized median ratio [30] of 90% and an H2L2:H2L1 normalized median ratio [31] of 81%. For the same substance, the H2L2:H2L1 normalized median ratio [32] was 12%, the H2L2:H2L1 normalized median ratio [33] was 96% and the H2L2:H2L1 normalized median ratio [34] was 72%. For the same substance, the H2L2:H2L1 normalized median ratio [35] was 5%, the H2L2:H2L1 normalized median ratio [36] was 86% and the H2L2:H2L1 normalized median ratio [20] was 20%. The H2L2:H2L1 normalized median ratio [37] was 28%, the H2L2:H2L1 normalized median ratio [38] was 19% and the H2L2:H2L1 normalized median ratio [39] was 17%. The H2L2:H2L1 normalized median ratio [40] was 18% and the H2L2:H2L1 normalized median ratio [41] was 14%.
For “D3H44 Fab heavy chain A139G_F174V_V190A (Kabat), C-terminal ABD2-His6 tag”, the H1L1:H1L2 normalized median ratio [2] was 40 of 100, the H1L1:H1L2 normalized median ratio [3] was 51 of 100 and the H1L1:H1L2 normalized median scalar value ln(r1/f1) [3] was 0.03. The H1L1:H1L2 normalized median ratio [5] was 60 of 100, the H1L1:H1L2 normalized median scalar value ln(r1/f1) [5] was 0.42 and the H1L1:H1L2 normalized median ratio [7] was 49 of 100.
